Literature values as cited in paper PMC4769028.

Target: CusA (Escherichia coli) (UniProt P38054)
Assay: ITC

Sequence of UniProt P38054 (P38054 whole entry): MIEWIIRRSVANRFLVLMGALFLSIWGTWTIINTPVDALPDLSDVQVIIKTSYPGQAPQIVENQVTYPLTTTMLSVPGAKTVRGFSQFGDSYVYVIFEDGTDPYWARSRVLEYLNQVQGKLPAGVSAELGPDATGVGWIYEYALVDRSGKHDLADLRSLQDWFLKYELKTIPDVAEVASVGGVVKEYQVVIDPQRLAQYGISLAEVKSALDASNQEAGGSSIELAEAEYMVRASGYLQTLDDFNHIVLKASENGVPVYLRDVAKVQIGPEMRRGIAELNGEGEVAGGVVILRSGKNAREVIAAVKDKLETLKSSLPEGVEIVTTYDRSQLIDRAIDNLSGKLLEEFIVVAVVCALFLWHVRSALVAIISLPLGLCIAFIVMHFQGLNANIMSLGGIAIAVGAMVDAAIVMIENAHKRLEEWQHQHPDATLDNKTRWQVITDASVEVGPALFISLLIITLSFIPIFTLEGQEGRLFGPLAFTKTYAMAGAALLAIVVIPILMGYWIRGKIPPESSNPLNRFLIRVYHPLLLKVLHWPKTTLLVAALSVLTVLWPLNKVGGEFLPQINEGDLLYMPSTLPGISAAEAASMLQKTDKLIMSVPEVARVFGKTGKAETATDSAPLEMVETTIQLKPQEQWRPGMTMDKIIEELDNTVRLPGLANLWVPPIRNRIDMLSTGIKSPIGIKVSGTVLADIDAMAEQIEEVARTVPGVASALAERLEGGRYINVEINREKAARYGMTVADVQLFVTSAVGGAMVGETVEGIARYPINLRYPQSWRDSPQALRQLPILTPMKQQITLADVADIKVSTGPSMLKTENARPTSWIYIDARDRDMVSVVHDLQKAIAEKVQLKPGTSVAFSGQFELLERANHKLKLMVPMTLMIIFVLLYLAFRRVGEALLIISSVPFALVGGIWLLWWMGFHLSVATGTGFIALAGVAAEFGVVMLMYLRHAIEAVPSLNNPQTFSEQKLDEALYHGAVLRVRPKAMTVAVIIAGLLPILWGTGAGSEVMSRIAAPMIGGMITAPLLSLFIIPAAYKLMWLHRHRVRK

For CusB (from UniProt P77239), the Kd is given as 5.1 µM.
